Reference: US20040235710A1, “Pre-mixes of glp-1 and basal insulin” (published 2004)

The molecules below were run against T1, human GLP-1 receptor (human, UniProt P43220) (assay: not given).

Row | Molecule | GLP-1 receptor activation relative to Val^8-GLP-1(7-37)OH (relative potency)
1 | Val^8-Val^16-GLP-1(7-37)OH (peptide) | 1.1
2 | Val^8-Cys^16-Lys^26-Arg^34-GLP-1(7-37)OH (peptide) | 1.9
3 | Val^8-Cys^16-Lys^26-GLP-1(7-37)OH (peptide) | 4.2

These molecules were tested against T1, human GLP-1 receptor (assay: cell-based or functional assay).

Row | Molecule | GLP-1 Receptor Activation (relative to GLP-1(7-37)OH)
4 | HVEGTFTSDYSSYLEGQAAKEFIAWLVKGRG [Val^8-Tyr^16-GLP-1(7-37)OH] | 1.18 relative potency
5 | HVEGTYTSDVSSYLEGQAAKEFIAWLVKGRG [Val^8-Tyr^12-GLP-1(7-37)OH] | 0.81 relative potency

Target: T1, human GLP-1 receptor
Assay: cell-based or functional assay
Remark: another data set of the same source

Row | Molecule | GLP-1 receptor activation relative to Val^8-GLP-1(7-37)OH
6 | HVEGTFTSDWSSYLEEQAVKEFIAWLIKGRG [Val^8-Trp^16-Glu^22-Val^25-Ile^33-GLP-1(7-37)OH] | 5 relative potency
7 | HVEGTFTSDYSSYLEGQAAKEFIAWLVKGRG [Val^8-Tyr^16-GLP-1(7-37)OH] | 2.5 relative potency
8 | HVEGTFTSDVSKYLEEQAAKEFIAWLVKGRG [Val^8-Lys^18-Glu^22-GLP-1(7-37)OH] | 2.5 relative potency
9 | HVEGTFTSDVSSYLEEQAIKEFIAWLVKGRG [Val^8-Glu^22-Ile^25-GLP-1(7-37)OH] | 3.1 relative potency
10 | HVEGTFTSDVSSFLEEQAAKEFIAWLVKGRG [Val^8-Phe^19-Glu^22-GLP-1(7-37)OH] | 1.5 relative potency
11 | HVEGTFTSDFSSYLEEQAAKEFIAWLVKGRG [Val^8-Phe^16-Glu^22-GLP-1(7-37)OH] | 2.3 relative potency
12 | HVEGTFTSDVSFYLEEQAAKEFIAWLVKGRG [Val^8-Phe^18-Glu^22-GLP-1(7-37)OH] | 2 relative potency
13 | HVEGTFTSDWSSYLEEQAAKEFIAWLIKGRG [Val^8-Trp^16-Glu^22-Ile^33-GLP-1(7-37)OH] | 4.1 relative potency
14 | HVEGTFTSDVSSYLEEQAAKIFIAWLVKGRG [Val^8-Glu^22-Ile^27-GLP-1(7-37)OH] | 2 relative potency
15 | HVEGTFTSDVSSWLEEQAAKEFIAWLVKGRG [Val^8-Trp^19-Glu^22-GLP-1(7-37)OH] | 3.2 relative potency
16 | HVDGIFTSDYSSYLEEQAAKEFIAWLVKGRG [Val^8-Asp^9-Ile^11-Tyr^16-Glu^22-GLP-1(7-37)OH] | 4.3 relative potency
17 | HVEGTFTSDYSSWLEEQAAKEFIAWLVKGRG [Val^8-Tyr^16-Trp^19-Glu^22-GLP-1(7-37)OH] | 3.5 relative potency
18 | HVEGTFTSDVSIYLEEQAAKEFIAWLVKGRG [Val^8-Ile^18-Glu^22-GLP-1(7-37)OH] | 4 relative potency
19 | HVEGTFTSDISSYLEEQAAKEFIAWLVKGRG [Val^8-Ile^16-Glu^22-GLP-1(7-37)OH] | 3.3 relative potency
20 | HVEGTFTSDVSSYLEEQALKEFIAWLVKGRG [Val^8-Glu^22-Leu^25-GLP-1(7-37)OH] | 2.8 relative potency
21 | HVEGTFTSDVSSYFEEQAAKEFIAWLVKGRG [Val^8-Phe^20-Glu^22-GLP-1(7-37)OH] | 2.7 relative potency
22 | HVEGTYTSDVSSYLEGQAAKEFIAWLVKGRG [Val^8-Tyr^12-GLP-1(7-37)OH] | 1.7 relative potency
